Results as given in patent US20150344570A1 (published 2015).

B1: GpH7-B3 variant P238_06M/GpL16-k0 (antibody, human IgG1, kappa)
heavy: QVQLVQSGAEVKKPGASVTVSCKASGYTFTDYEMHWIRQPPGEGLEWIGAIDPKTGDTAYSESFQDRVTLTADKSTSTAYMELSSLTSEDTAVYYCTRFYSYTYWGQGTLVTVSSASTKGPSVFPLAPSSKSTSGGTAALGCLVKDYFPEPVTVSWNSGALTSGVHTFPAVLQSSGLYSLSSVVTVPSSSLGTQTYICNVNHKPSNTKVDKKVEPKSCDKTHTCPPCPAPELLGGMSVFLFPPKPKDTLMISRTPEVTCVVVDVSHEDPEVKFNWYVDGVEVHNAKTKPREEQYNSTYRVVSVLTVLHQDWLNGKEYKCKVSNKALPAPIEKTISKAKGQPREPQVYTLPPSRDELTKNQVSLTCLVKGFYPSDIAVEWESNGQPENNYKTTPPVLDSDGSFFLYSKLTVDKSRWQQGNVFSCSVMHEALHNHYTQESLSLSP
light: DIVMTQSPLSLPVTPGEPASISCQASESLVHSNRNTYLHWYLQKPGQSPQLLIYKVSNRFSGVPDRFSGSGSGTDFTLKISRVEAEDVGVYYCSQNTHVPPTFGQGTKVEIERTVAAPSVFIFPPSDEQLKSGTASVVCLLNNFYPREAKVQWKVDNALQSGNSQESVTEQDSKDSTYSLSSTLTLSKADYEKHKVYACEVTHQGLSSPVTKSFNRGEC
notes: also called Ho Ab P238_06M
B2: GpH7-B3 variant P238_08L/GpL16-k0 (antibody, human IgG1, kappa)
heavy: not shown
light: DIVMTQSPLSLPVTPGEPASISCQASESLVHSNRNTYLHWYLQKPGQSPQLLIYKVSNRFSGVPDRFSGSGSGTDFTLKISRVEAEDVGVYYCSQNTHVPPTFGQGTKVEIERTVAAPSVFIFPPSDEQLKSGTASVVCLLNNFYPREAKVQWKVDNALQSGNSQESVTEQDSKDSTYSLSSTLTLSKADYEKHKVYACEVTHQGLSSPVTKSFNRGEC
notes: also called Ho Ab P238_08L
B3: GpH7-B3 variant P238_10E/GpL16-k0 (antibody, human IgG1, kappa)
heavy: not shown
light: DIVMTQSPLSLPVTPGEPASISCQASESLVHSNRNTYLHWYLQKPGQSPQLLIYKVSNRFSGVPDRFSGSGSGTDFTLKISRVEAEDVGVYYCSQNTHVPPTFGQGTKVEIERTVAAPSVFIFPPSDEQLKSGTASVVCLLNNFYPREAKVQWKVDNALQSGNSQESVTEQDSKDSTYSLSSTLTLSKADYEKHKVYACEVTHQGLSSPVTKSFNRGEC
notes: also called Ho Ab P238_10E
B4: GpH7-B3 variant P238_15Y/GpL16-k0 (antibody, human IgG1, kappa)
heavy: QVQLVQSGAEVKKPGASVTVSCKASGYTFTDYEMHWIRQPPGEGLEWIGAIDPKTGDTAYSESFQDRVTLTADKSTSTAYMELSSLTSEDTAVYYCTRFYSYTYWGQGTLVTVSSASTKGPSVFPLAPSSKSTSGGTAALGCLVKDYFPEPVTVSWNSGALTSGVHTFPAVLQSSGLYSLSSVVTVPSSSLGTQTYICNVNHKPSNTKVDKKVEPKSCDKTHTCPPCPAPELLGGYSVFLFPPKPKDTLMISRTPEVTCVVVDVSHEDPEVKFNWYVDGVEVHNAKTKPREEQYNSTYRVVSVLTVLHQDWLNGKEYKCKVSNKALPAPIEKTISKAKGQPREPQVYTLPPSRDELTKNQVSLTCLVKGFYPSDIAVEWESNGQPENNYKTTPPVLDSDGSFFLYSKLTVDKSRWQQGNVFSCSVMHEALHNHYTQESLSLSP
light: DIVMTQSPLSLPVTPGEPASISCQASESLVHSNRNTYLHWYLQKPGQSPQLLIYKVSNRFSGVPDRFSGSGSGTDFTLKISRVEAEDVGVYYCSQNTHVPPTFGQGTKVEIERTVAAPSVFIFPPSDEQLKSGTASVVCLLNNFYPREAKVQWKVDNALQSGNSQESVTEQDSKDSTYSLSSTLTLSKADYEKHKVYACEVTHQGLSSPVTKSFNRGEC
notes: also called Ho Ab P238_15Y
B5: GpH7-B3 variant P271_02A/GpL16-k0 (antibody, human IgG1, kappa)
heavy: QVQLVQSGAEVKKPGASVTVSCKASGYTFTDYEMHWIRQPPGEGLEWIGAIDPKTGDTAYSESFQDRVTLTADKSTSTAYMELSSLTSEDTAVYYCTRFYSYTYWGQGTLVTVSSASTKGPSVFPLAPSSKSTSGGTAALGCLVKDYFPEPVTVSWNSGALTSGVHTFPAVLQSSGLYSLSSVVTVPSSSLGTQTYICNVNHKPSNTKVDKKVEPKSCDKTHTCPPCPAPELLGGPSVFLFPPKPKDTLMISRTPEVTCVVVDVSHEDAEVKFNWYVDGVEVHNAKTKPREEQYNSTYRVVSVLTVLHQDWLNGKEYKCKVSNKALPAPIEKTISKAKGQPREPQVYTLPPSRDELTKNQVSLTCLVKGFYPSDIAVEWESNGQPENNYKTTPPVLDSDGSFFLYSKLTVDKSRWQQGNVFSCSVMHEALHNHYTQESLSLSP
light: DIVMTQSPLSLPVTPGEPASISCQASESLVHSNRNTYLHWYLQKPGQSPQLLIYKVSNRFSGVPDRFSGSGSGTDFTLKISRVEAEDVGVYYCSQNTHVPPTFGQGTKVEIERTVAAPSVFIFPPSDEQLKSGTASVVCLLNNFYPREAKVQWKVDNALQSGNSQESVTEQDSKDSTYSLSSTLTLSKADYEKHKVYACEVTHQGLSSPVTKSFNRGEC
notes: also called Ho Ab P271_02A
B6: GpH7-B3 variant P271_03V/GpL16-k0 (antibody, human IgG1, kappa)
heavy: not shown
light: DIVMTQSPLSLPVTPGEPASISCQASESLVHSNRNTYLHWYLQKPGQSPQLLIYKVSNRFSGVPDRFSGSGSGTDFTLKISRVEAEDVGVYYCSQNTHVPPTFGQGTKVEIERTVAAPSVFIFPPSDEQLKSGTASVVCLLNNFYPREAKVQWKVDNALQSGNSQESVTEQDSKDSTYSLSSTLTLSKADYEKHKVYACEVTHQGLSSPVTKSFNRGEC
notes: also called Ho Ab P271_03V
B7: GpH7-B3 variant P271_14T/GpL16-k0 (antibody, human IgG1, kappa)
heavy: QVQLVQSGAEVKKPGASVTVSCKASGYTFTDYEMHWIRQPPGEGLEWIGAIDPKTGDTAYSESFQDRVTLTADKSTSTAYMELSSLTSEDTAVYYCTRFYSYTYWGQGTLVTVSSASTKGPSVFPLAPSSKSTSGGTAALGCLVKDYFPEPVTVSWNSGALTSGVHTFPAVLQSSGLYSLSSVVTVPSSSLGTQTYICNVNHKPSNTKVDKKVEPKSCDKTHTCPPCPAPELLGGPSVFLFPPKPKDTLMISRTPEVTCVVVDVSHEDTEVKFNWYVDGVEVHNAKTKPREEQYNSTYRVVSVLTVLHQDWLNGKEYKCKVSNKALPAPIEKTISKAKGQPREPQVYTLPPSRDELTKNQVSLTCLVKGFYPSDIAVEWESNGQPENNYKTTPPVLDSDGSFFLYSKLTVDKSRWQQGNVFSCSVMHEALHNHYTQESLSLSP
light: DIVMTQSPLSLPVTPGEPASISCQASESLVHSNRNTYLHWYLQKPGQSPQLLIYKVSNRFSGVPDRFSGSGSGTDFTLKISRVEAEDVGVYYCSQNTHVPPTFGQGTKVEIERTVAAPSVFIFPPSDEQLKSGTASVVCLLNNFYPREAKVQWKVDNALQSGNSQESVTEQDSKDSTYSLSSTLTLSKADYEKHKVYACEVTHQGLSSPVTKSFNRGEC
notes: also called Ho Ab P271_14T
B8: GpH7-B3 variant P271_15Y/GpL16-k0 (antibody, human IgG1, kappa)
heavy: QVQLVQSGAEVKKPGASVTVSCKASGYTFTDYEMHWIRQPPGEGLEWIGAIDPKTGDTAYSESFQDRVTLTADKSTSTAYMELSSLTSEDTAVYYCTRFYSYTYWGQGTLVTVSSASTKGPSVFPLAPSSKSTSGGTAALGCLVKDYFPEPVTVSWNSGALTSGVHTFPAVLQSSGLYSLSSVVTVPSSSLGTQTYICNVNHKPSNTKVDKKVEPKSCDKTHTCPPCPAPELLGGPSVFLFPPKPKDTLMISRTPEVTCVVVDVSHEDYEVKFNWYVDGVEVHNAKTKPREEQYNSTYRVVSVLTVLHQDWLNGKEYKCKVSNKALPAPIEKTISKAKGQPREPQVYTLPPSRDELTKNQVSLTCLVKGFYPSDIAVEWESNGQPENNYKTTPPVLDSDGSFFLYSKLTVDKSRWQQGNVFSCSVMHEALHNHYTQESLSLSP
light: DIVMTQSPLSLPVTPGEPASISCQASESLVHSNRNTYLHWYLQKPGQSPQLLIYKVSNRFSGVPDRFSGSGSGTDFTLKISRVEAEDVGVYYCSQNTHVPPTFGQGTKVEIERTVAAPSVFIFPPSDEQLKSGTASVVCLLNNFYPREAKVQWKVDNALQSGNSQESVTEQDSKDSTYSLSSTLTLSKADYEKHKVYACEVTHQGLSSPVTKSFNRGEC
notes: also called Ho Ab P271_15Y
B9: GpH7-B3 variant P271_16H/GpL16-k0 (antibody, human IgG1, kappa)
heavy: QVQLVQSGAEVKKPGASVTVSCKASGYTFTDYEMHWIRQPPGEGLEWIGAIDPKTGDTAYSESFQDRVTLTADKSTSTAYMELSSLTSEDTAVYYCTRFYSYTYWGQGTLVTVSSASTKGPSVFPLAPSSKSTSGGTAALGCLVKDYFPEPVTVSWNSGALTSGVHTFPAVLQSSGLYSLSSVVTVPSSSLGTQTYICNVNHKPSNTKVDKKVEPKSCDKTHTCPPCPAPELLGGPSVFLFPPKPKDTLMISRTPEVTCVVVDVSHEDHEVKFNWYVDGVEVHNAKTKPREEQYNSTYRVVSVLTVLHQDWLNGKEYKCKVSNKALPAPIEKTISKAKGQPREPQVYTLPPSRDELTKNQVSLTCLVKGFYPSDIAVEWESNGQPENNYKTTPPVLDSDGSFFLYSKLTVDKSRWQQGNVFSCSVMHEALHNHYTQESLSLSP
light: DIVMTQSPLSLPVTPGEPASISCQASESLVHSNRNTYLHWYLQKPGQSPQLLIYKVSNRFSGVPDRFSGSGSGTDFTLKISRVEAEDVGVYYCSQNTHVPPTFGQGTKVEIERTVAAPSVFIFPPSDEQLKSGTASVVCLLNNFYPREAKVQWKVDNALQSGNSQESVTEQDSKDSTYSLSSTLTLSKADYEKHKVYACEVTHQGLSSPVTKSFNRGEC
notes: also called Ho Ab P271_16H
B10: GpH7-B3 variant P329_01G/GpL16-k0 (antibody, human IgG1, kappa)
heavy: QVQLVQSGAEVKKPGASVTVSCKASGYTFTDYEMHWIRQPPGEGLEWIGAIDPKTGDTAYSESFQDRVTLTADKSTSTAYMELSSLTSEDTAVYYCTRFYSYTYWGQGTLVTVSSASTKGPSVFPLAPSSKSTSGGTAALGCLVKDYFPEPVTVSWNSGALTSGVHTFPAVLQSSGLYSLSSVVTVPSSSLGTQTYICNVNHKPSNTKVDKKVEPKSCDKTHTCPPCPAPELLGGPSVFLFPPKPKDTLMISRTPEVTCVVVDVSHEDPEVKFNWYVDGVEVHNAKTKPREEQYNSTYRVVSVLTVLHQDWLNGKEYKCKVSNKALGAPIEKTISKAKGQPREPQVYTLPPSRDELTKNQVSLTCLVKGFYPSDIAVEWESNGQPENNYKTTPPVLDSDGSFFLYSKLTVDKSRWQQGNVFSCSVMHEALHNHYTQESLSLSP
light: DIVMTQSPLSLPVTPGEPASISCQASESLVHSNRNTYLHWYLQKPGQSPQLLIYKVSNRFSGVPDRFSGSGSGTDFTLKISRVEAEDVGVYYCSQNTHVPPTFGQGTKVEIERTVAAPSVFIFPPSDEQLKSGTASVVCLLNNFYPREAKVQWKVDNALQSGNSQESVTEQDSKDSTYSLSSTLTLSKADYEKHKVYACEVTHQGLSSPVTKSFNRGEC
notes: also called Ho Ab P329_01G
B11: GpH7-B3 variant P329_02A/GpL16-k0 (antibody, human IgG1, kappa)
heavy: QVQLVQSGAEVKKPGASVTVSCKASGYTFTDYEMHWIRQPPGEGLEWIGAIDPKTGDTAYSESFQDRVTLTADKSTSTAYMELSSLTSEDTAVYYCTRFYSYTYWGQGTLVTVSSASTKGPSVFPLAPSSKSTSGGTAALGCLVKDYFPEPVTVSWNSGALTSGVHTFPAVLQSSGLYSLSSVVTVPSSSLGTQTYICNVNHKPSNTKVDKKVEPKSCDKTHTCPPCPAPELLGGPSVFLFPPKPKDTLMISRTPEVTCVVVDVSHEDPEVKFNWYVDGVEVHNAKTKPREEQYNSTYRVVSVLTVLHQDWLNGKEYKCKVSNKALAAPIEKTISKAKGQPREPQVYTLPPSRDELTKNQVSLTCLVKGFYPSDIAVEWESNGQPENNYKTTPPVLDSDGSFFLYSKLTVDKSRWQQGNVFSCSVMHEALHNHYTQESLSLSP
light: DIVMTQSPLSLPVTPGEPASISCQASESLVHSNRNTYLHWYLQKPGQSPQLLIYKVSNRFSGVPDRFSGSGSGTDFTLKISRVEAEDVGVYYCSQNTHVPPTFGQGTKVEIERTVAAPSVFIFPPSDEQLKSGTASVVCLLNNFYPREAKVQWKVDNALQSGNSQESVTEQDSKDSTYSLSSTLTLSKADYEKHKVYACEVTHQGLSSPVTKSFNRGEC
notes: also called Ho Ab P329_02A
B12: GpH7-B3 variant Q295_09D/GpL16-k0 (antibody, human IgG1, kappa)
heavy: not shown
light: DIVMTQSPLSLPVTPGEPASISCQASESLVHSNRNTYLHWYLQKPGQSPQLLIYKVSNRFSGVPDRFSGSGSGTDFTLKISRVEAEDVGVYYCSQNTHVPPTFGQGTKVEIERTVAAPSVFIFPPSDEQLKSGTASVVCLLNNFYPREAKVQWKVDNALQSGNSQESVTEQDSKDSTYSLSSTLTLSKADYEKHKVYACEVTHQGLSSPVTKSFNRGEC
notes: also called Ho Ab Q295_09D
B13: GpH7-B3 variant Q295_11K/GpL16-k0 (antibody, human IgG1, kappa)
heavy: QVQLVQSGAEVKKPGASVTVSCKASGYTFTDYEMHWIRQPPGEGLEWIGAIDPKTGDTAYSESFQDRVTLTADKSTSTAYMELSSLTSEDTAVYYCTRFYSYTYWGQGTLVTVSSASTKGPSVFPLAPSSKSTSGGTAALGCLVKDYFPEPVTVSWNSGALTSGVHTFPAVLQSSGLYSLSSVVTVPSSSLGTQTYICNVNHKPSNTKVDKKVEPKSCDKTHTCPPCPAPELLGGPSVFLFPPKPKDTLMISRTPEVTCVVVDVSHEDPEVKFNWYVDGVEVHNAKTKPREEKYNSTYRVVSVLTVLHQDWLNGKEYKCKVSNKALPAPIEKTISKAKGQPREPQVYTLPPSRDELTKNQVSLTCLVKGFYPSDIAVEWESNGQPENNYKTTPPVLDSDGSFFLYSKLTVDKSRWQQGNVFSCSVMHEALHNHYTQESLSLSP
light: DIVMTQSPLSLPVTPGEPASISCQASESLVHSNRNTYLHWYLQKPGQSPQLLIYKVSNRFSGVPDRFSGSGSGTDFTLKISRVEAEDVGVYYCSQNTHVPPTFGQGTKVEIERTVAAPSVFIFPPSDEQLKSGTASVVCLLNNFYPREAKVQWKVDNALQSGNSQESVTEQDSKDSTYSLSSTLTLSKADYEKHKVYACEVTHQGLSSPVTKSFNRGEC
notes: also called Ho Ab Q295_11K
B14: GpH7-B3 variant Q295_15Y/GpL16-k0 (antibody, human IgG1, kappa)
heavy: not shown
light: DIVMTQSPLSLPVTPGEPASISCQASESLVHSNRNTYLHWYLQKPGQSPQLLIYKVSNRFSGVPDRFSGSGSGTDFTLKISRVEAEDVGVYYCSQNTHVPPTFGQGTKVEIERTVAAPSVFIFPPSDEQLKSGTASVVCLLNNFYPREAKVQWKVDNALQSGNSQESVTEQDSKDSTYSLSSTLTLSKADYEKHKVYACEVTHQGLSSPVTKSFNRGEC
notes: also called Ho Ab Q295_15Y
B15: GpH7-B3 variant Q295_16H/GpL16-k0 (antibody, human IgG1, kappa)
heavy: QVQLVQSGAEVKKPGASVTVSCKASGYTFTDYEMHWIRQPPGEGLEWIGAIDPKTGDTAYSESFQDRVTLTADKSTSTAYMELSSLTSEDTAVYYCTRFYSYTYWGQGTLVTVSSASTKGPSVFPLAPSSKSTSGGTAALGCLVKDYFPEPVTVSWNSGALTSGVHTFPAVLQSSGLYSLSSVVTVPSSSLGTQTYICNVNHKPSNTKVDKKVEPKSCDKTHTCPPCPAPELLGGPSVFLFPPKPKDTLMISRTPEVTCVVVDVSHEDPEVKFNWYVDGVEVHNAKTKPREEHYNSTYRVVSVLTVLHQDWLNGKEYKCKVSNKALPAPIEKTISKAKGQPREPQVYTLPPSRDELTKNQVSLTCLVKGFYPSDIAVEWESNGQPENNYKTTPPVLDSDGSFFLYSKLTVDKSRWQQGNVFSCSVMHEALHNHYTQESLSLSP
light: DIVMTQSPLSLPVTPGEPASISCQASESLVHSNRNTYLHWYLQKPGQSPQLLIYKVSNRFSGVPDRFSGSGSGTDFTLKISRVEAEDVGVYYCSQNTHVPPTFGQGTKVEIERTVAAPSVFIFPPSDEQLKSGTASVVCLLNNFYPREAKVQWKVDNALQSGNSQESVTEQDSKDSTYSLSSTLTLSKADYEKHKVYACEVTHQGLSSPVTKSFNRGEC
notes: also called Ho Ab Q295_16H
B16: GpH7-A5/GpH7-B3 variant E269_01G/GpL16-k0 (antibody, human IgG1, kappa)
heavy 1: not shown
heavy 2: not shown
light: DIVMTQSPLSLPVTPGEPASISCQASESLVHSNRNTYLHWYLQKPGQSPQLLIYKVSNRFSGVPDRFSGSGSGTDFTLKISRVEAEDVGVYYCSQNTHVPPTFGQGTKVEIERTVAAPSVFIFPPSDEQLKSGTASVVCLLNNFYPREAKVQWKVDNALQSGNSQESVTEQDSKDSTYSLSSTLTLSKADYEKHKVYACEVTHQGLSSPVTKSFNRGEC
notes: also called He Ab E269_01G
B17: GpH7-A5/GpH7-B3 variant A327_03V/GpL16-k0 (antibody, human IgG1, kappa)
heavy 1: not shown
heavy 2: not shown
light: DIVMTQSPLSLPVTPGEPASISCQASESLVHSNRNTYLHWYLQKPGQSPQLLIYKVSNRFSGVPDRFSGSGSGTDFTLKISRVEAEDVGVYYCSQNTHVPPTFGQGTKVEIERTVAAPSVFIFPPSDEQLKSGTASVVCLLNNFYPREAKVQWKVDNALQSGNSQESVTEQDSKDSTYSLSSTLTLSKADYEKHKVYACEVTHQGLSSPVTKSFNRGEC
notes: also called He Ab A327_03V
B18: GpH7-A5/GpH7-B3 variant A327_06M/GpL16-k0 (antibody, human IgG1, kappa)
heavy 1: not shown
heavy 2: not shown
light: DIVMTQSPLSLPVTPGEPASISCQASESLVHSNRNTYLHWYLQKPGQSPQLLIYKVSNRFSGVPDRFSGSGSGTDFTLKISRVEAEDVGVYYCSQNTHVPPTFGQGTKVEIERTVAAPSVFIFPPSDEQLKSGTASVVCLLNNFYPREAKVQWKVDNALQSGNSQESVTEQDSKDSTYSLSSTLTLSKADYEKHKVYACEVTHQGLSSPVTKSFNRGEC
notes: also called He Ab A327_06M
B19: GpH7-A5/GpH7-B3 variant A327_07I/GpL16-k0 (antibody, human IgG1, kappa)
heavy 1: not shown
heavy 2: not shown
light: DIVMTQSPLSLPVTPGEPASISCQASESLVHSNRNTYLHWYLQKPGQSPQLLIYKVSNRFSGVPDRFSGSGSGTDFTLKISRVEAEDVGVYYCSQNTHVPPTFGQGTKVEIERTVAAPSVFIFPPSDEQLKSGTASVVCLLNNFYPREAKVQWKVDNALQSGNSQESVTEQDSKDSTYSLSSTLTLSKADYEKHKVYACEVTHQGLSSPVTKSFNRGEC
notes: also called He Ab A327_07I
B20: GpH7-A5/GpH7-B3 variant A327_09D/GpL16-k0 (antibody, human IgG1, kappa)
heavy 1: not shown
heavy 2: not shown
light: DIVMTQSPLSLPVTPGEPASISCQASESLVHSNRNTYLHWYLQKPGQSPQLLIYKVSNRFSGVPDRFSGSGSGTDFTLKISRVEAEDVGVYYCSQNTHVPPTFGQGTKVEIERTVAAPSVFIFPPSDEQLKSGTASVVCLLNNFYPREAKVQWKVDNALQSGNSQESVTEQDSKDSTYSLSSTLTLSKADYEKHKVYACEVTHQGLSSPVTKSFNRGEC
notes: also called He Ab A327_09D
B21: GpH7-A5/GpH7-B3 variant A327_10E/GpL16-k0 (antibody, human IgG1, kappa)
heavy 1: not shown
heavy 2: not shown
light: DIVMTQSPLSLPVTPGEPASISCQASESLVHSNRNTYLHWYLQKPGQSPQLLIYKVSNRFSGVPDRFSGSGSGTDFTLKISRVEAEDVGVYYCSQNTHVPPTFGQGTKVEIERTVAAPSVFIFPPSDEQLKSGTASVVCLLNNFYPREAKVQWKVDNALQSGNSQESVTEQDSKDSTYSLSSTLTLSKADYEKHKVYACEVTHQGLSSPVTKSFNRGEC
notes: also called He Ab A327_10E

target: T1, FcγRIa (human, UniProt P12314 16-292); test: SPR (Biacore); Ho Ab relative to HoCon Ab = 100
T1 construct: extracellular domain; also called FcgRI; 1a
Outline: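 On Biacore T100 at 25° C in HBS-EP+, FcγR extracellular domains flowed over test antibodies held by immobilized antigen peptide. Glycine-HCl 10 mM, pH 1.5 stripped captured antibody between cycles; values reported as binding relative to the control antibody.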

T1 sequence (P12314 16-292): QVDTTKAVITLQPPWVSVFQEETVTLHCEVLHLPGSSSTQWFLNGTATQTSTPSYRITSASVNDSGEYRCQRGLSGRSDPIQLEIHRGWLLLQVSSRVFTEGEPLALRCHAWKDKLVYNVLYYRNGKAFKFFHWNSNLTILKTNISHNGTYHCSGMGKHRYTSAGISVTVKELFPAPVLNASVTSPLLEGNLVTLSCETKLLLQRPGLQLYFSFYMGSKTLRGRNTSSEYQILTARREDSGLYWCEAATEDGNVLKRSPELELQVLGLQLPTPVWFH

Binder	Ho/Con_1a
B1	100 % of control
B2	100 % of control
B3	91.8 % of control
B4	99 % of control
B5	102 % of control
B6	102 % of control
B7	99.5 % of control
B8	99.4 % of control
B9	99.4 % of control
B10	89.5 % of control
B11	98.2 % of control
B12	96.8 % of control
B13	99.9 % of control
B14	97 % of control
B15	99.1 % of control

target: T1, FcγRIa; test: SPR (Biacore); He Ab relative to HeCon Ab = 100
Protocol: Analysis of interaction between objective antibody and the FcγR was carried out using Biacore T100 (GE Healthcare). HBS-EP+ (GE Healthcare) was used as the running buffer, and the measurement temperature was set to 25° C. Chips produced by immobilizing the antigen peptide by the amine coupling method to a Series S Sencor Chip CM5 (GE Healthcare), or alternatively, chips produced by allowing preliminarily biotinylated antigen peptides to interact with and immobilize onto a Series S Sensor Chip SA (certified) (GE Healthcare) were used. Antibodies of interest were captured onto an antigen peptide-immobilized chip, and allowed to interact to each FcγR diluted with running buffer. To regenerate and repeatedly use the chip, the antibodies captured on the chip were washed off by reacting 10 mM glycine-HCl, pH 1.5.

Binder	He/Con_1a
B16	104 % of control
B17	103 % of control
B18	103 % of control
B19	104 % of control
B20	103 % of control
B21	103 % of control
